Experimental data taken from paper PMC10847457 (Cell Discovery, 2024).

Experiments:
[1] = target: T1, SARS-CoV-2 RBD (aa 319-541) (SARS-CoV-2, UniProt P0DTC2); test: ELISA; conditions: both partners purified
T1 construct: source: Expi293 cells, transient transfection (pCMV3), purified

[2] = target: T2, SARS-CoV-2 NTD (aa 1-305) (SARS-CoV-2, UniProt P0DTC2); test: ELISA; conditions: both partners purified
T2 construct: source: Expi293 cells, transient transfection (pCMV3), purified

B1: PW5-570 (antibody, V domains shown)
VH: QMQLVQSGPEVRKPGTSVKVSCRASVFSFDTSAVQWVRQARGQPLEWIGWIVFGSSNTDYAQKFRDRVTITGDMSTGTAYMELSSLRSEDTAVYYCAAPHCNRTNCHDGFDIWGQGTVVTVSS
VL: EIVLTQSPGTLSLSPGERATLSCRASQSVRSGYLGWYQQKPGQAPRLLIYGAYNRATGIPDRFRGSGSGTDFTLTISRLEPEDFVVYYCQQYDRSPWTFGQGTKVEIK
notes: also called PW5-570 IgG; PW5-570 immunoglobulin G
binding result [1]: binds
binding result [2]: no binding

B2: PW5-535 (antibody, V domains shown)
VH: EVRLVESGGGLVQPGGSLRLSCAASGFTFRNYDIHWVRQTTGKGLEWVSAVGTSGDTYYLDSVKGRFTISREDAKKSVYLQMNSLRAGDTAMYYCVRGDASPDNIYYYMDVWGTGTRVIVSS
VL: DIQVTQSPSPLSASVGDRVTITCRASQTIGKYLNWYHQIPGKAPKLLISAASTLHSGVPSRFSGRGSGTDFTLTISSLQPEDFGTYYCQQSYSSPPWTFGQGTKVEIK
binding result [1]: binds
binding result [2]: no binding

B3: PW5-5 (antibody, V domains shown)
VH: QVQLVQSGAEVKKPGASVKVSCKTSGYTFTDHYMYWVRQAPGQGLEWMGVINPDAGSVTYAQKFQGRVTMTSDTSTSTVYMELSSLRSEDTAVYYCARDLFFIPAANSFDYWGQGTLVTVSS
VL: EIVLTQSPATLSLSPGERATLSCRASQSVSSYLAWYQQKPGQAPRLLIYDATNRATGIPARFSGSGSGTDFTLTISSLEPEDFAVYYCQHRSNWPRMFTFGQGTKLEIK
notes: also called PW5-5 IgG; IgG PW5-5
binding result [1]: binds
binding result [2]: no binding
